Reference: the supplement of paper PMC10126150
± gives the standard deviation of the averaged measurements.

Tested on: ATP
Assay: switch fluorescence ratio, 500 uM ATP over buffer (Cy3 cluster intensity, sum of 5 cycles each) (fold (ratio)); higher = stronger signal-on switching upon ATP binding; sequences stand for … in TCGTCGGCAGCGTCAGATGTGTATAAGAGACAGTTTTTTTTTTTTTTTTTTTTTTTTT…TC
Settings: aptamer strand: ATP DNA aptamer (quencher-CACCTGGGGGAGTATTGCGGAGGAAGG + anchor), 100 nM annealed; ATP concentration: 500 uM
Method in brief: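 The quencher-labelled ATP aptamer, at 100 nM, was annealed to Cy3-labelled switching-strand clusters on a modified Illumina MiSeq flow-cell. The clusters were imaged in selection buffer, then after 15 min with 500 uM ATP at 22 °C, and this buffer/ATP cycle ran five times with NaOH stripping and re-annealing between runs. Per-cluster fluorescence ratios, summed target-cycle over summed buffer-cycle Cy3 intensity, were averaged per switch-domain sequence. Clusters outside 100-1000 RFU were excluded.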
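Note: ATP exposure 15 min at 22 °C before imaging.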

| Sequence | switch fluorescence ratio |
| --- | --- |
| GTAAAGGGGG | 0.998 ± 0.023 |
| GTAAATTTGA | 1.03 ± 0.068 |
| GTAAATTTGC | 1.01 ± 0.013 |
| GTAACCGGTA | 1.02 ± 0.024 |
| GTAACTGGGA | 1.009 ± 0.0093 |
| GTAAGAAGTG | 0.941 ± 0.033 |
| GTAAGCCCGC | 1 ± 0.053 |
| GTAAGGGATG | 1.01 ± 0.016 |
| GTAAGGTAAG | 1.05 ± 0.015 |
| GTAAGTAGCG | 0.968 ± 0.02 |
| GTAATAAATT | 1.02 ± 0.092 |
| GTAATAGTGT | 0.981 ± 0.018 |
| GTAATATCGG | 0.998 ± 0.018 |
| GTAATGCCAG | 0.986 ± 0.031 |
| GTAATGGCGG | 1.013 ± 0.0019 |
| GTAATGTGGG | 0.972 ± 0.022 |
| GTAATTGGTG | 0.992 ± 0.014 |
| GTAATTTTGA | 1.01 ± 0.057 |
| GTACGACAAG | 1.11 ± 0.042 |
| GTACGGGGTT | 0.993 ± 0.023 |
| GTACGGTTTT | 0.994 ± 0.073 |
| GTACTAAATT | 1 ± 0.023 |
| GTACTTTAAT | 1.034 ± 0.0036 |
| GTAGAAATTC | 1.24 ± 0.048 |
| GTAGCAGACG | 1.16 ± 0.013 |

| Sequence | switch fluorescence ratio |
| --- | --- |
| GTAGCAGCAG | 1.17 ± 0.018 |
| GTAGCGGGAG | 1.057 ± 0.0053 |
| GTAGCGGGGT | 1.006 ± 0.0054 |
| GTAGGAGGGG | 0.985 ± 0.011 |
| GTAGGAGGTG | 1.07 ± 0.019 |
| GTAGGATTTC | 1.01 ± 0.027 |
| GTAGGGCGGG | 0.979 ± 0.043 |
| GTAGGGCGGT | 0.955 ± 0.026 |
| GTAGGGCGTA | 0.9635 ± 0.0073 |
| GTAGGGGATT | 1.029 ± 0.006 |
| GTAGGGGGGG | 0.999 ± 0.051 |
| GTAGGGGTTG | 1.01 ± 0.053 |
| GTAGGTCGAC | 1.01 ± 0.012 |
| GTAGTATTGG | 0.982 ± 0.028 |
| GTAGTCGGGT | 1.006 ± 0.0044 |
| GTAGTTACTT | 0.995 ± 0.051 |
| GTAGTTCGCC | 1.02 ± 0.023 |
| GTAGTTCTAG | 0.9852 ± 0.0081 |
| GTAGTTCTGC | 1 ± 0.018 |
| GTAGTTTGAA | 0.989 ± 0.036 |
| GTAGTTTTGG | 1.01 ± 0.026 |
| GTATAAATGT | 0.984 ± 0.051 |
| GTATAAGGGT | 1.01 ± 0.018 |
| GTATAGGGAC | 1.03 ± 0.03 |
| GTATATATAT | 0.979 ± 0.028 |

| Sequence | switch fluorescence ratio |
| --- | --- |
| GTATCCGGGA | 1.02 ± 0.057 |
| GTATCTGGGT | 0.997 ± 0.011 |
| GTATGAGTCG | 1.01 ± 0.085 |
| GTATGATTGT | 0.994 ± 0.027 |
| GTATGATTTA | 0.989 ± 0.037 |
| GTATGCAGGG | 0.989 ± 0.035 |
| GTATGGAGAG | 1.0111 ± 6.5e-05 |
| GTATGGATTC | 0.987 ± 0.057 |
| GTATGGCGAC | 1.02 ± 0.011 |
| GTATGGGACG | 1.003 ± 0.006 |
| GTATGGGATA | 1.01 ± 0.035 |
| GTATGGGTGG | 1 ± 0.024 |
| GTATGTGGGT | 1.023 ± 0.0072 |
| GTATTAAAAG | 1 ± 0.049 |
| GTATTAGGTG | 1.03 ± 0.048 |
| GTATTATGCG | 1.02 ± 0.028 |
| GTATTCAGGT | 0.9921 ± 0.0035 |
| GTATTCATTT | 0.982 ± 0.036 |
| GTATTCTGTT | 0.997 ± 0.013 |
| GTATTGTGGT | 0.967 ± 0.017 |
| GTATTTAGGA | 0.992 ± 0.011 |
| GTATTTGGGG | 0.985 ± 0.034 |
| GTATTTTTTT | 0.967 ± 0.013 |
| GTCAAATTGT | 0.992 ± 0.017 |
| GTCAAGGGGA | 1.02 ± 0.015 |

| Sequence | switch fluorescence ratio |
| --- | --- |
| GTCACCTTGA | 1.01 ± 0.014 |
| GTCAGAACTA | 0.9786 ± 0.0095 |
| GTCAGAGGGT | 0.994 ± 0.013 |
| GTCAGATGGG | 0.948 ± 0.01 |
| GTCAGCATTT | 1.03 ± 0.038 |
| GTCAGCGGTG | 0.9993 ± 0.009 |
| GTCAGGGGGG | 1.02 ± 0.081 |
| GTCAGTTTTT | 0.99392 ± 0.00038 |
| GTCATCTGGG | 0.982 ± 0.017 |
| GTCATTAACT | 1.02 ± 0.027 |
| GTCATTGTAT | 0.966 ± 0.028 |
| GTCATTTTTG | 1.02 ± 0.025 |
| GTCCCCACAG | 1.103 ± 0.007 |
| GTCGAAGAG | 0.987 ± 0.016 |
| GTCGAATTAT | 0.999 ± 0.019 |
| GTCGAGAAGG | 0.991 ± 0.009 |
| GTCGAGAGAA | 1.01 ± 0.011 |
| GTCGAGGGGC | 0.968 ± 0.049 |
| GTCGCGTAGG | 1.03 ± 0.024 |
| GTCGCTTGTC | 0.995 ± 0.023 |
| GTCGGCGGGG | 0.98048 ± 0.0006 |
| GTCGGGGGGA | 0.993 ± 0.014 |
| GTCGGGGTTG | 0.971 ± 0.014 |
| GTCGGTTGGA | 0.977 ± 0.036 |
| GTCGGTTGTG | 0.974 ± 0.055 |
